Results: patent US20260034230A1 (Regeneron, published 2026)
Substitutions are numbered along the chain they refer to. Blank lines part the entries; values can stand above or below the binder they belong to.

What was measured:
[1] = molecular target: T1, REGN2431 (hmm.hTfRC): monomeric human Tfrc ectodomain (C89-F760) with N-terminal hexahistidine-myc-myc tag (human, UniProt P02786 89-760); experiment: SPR Biacore, IgG captured by anti-hFc, 25 C
T1 construct: also called hmm.hTfR(C89-F763); hTFR-mmh
T1 sequence (P02786 other isoform, or with tags, fused parts or gaps): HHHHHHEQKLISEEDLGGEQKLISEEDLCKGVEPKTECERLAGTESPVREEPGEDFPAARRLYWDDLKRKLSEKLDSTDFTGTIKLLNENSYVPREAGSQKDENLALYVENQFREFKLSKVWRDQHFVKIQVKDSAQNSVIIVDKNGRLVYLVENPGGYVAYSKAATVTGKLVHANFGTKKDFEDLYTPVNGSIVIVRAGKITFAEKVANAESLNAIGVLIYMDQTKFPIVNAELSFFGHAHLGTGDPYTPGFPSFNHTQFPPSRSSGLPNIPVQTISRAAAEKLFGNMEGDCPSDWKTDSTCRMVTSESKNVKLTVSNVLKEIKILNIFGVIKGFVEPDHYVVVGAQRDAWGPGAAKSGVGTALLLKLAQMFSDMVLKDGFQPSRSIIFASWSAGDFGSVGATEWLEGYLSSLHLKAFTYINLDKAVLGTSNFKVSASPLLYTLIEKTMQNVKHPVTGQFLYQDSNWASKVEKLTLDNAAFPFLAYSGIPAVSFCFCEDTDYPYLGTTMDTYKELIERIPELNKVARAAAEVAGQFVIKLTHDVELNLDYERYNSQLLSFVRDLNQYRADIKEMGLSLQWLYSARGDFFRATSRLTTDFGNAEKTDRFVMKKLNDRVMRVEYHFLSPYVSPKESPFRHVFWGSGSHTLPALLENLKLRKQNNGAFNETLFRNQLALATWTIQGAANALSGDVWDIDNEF
Description: (§1) Biacore binding kinetics assays were conducted for the interaction of 32 anti-human TfR IgG1 monoclonal antibodies from CHO supernatants with TfR reagents at 25° C.
(§2) Equilibrium dissociation constants (KD) for the interaction of anti-TfR monoclonal antibodies with human and fascicularis monkey TfR ecto domain recombinant proteins were determined using a real-time surface plasmon resonance (SPR) based Biacore S200 biosensor. All binding studies were performed in 10 mM HEPES, 150 mM NaCl, 3 mM EDTA, and 0.05% v/v surfactant Tween-20, pH 7.4 (HBS-EP) running buffer at […]. The Biacore CM5 sensor surface was first derivatized by amine coupling with a monoclonal mouse anti-human Fc antibody (REGN2567) followed by a step to capture anti-TfR monoclonal antibodies in CHO conditioned media. […] The dissociation of TfR bound to anti-TfR monoclonal antibodies was monitored for 3 minutes in HBS-EP running buffer. At the end of each cycle, the anti-TfR monoclonal antibodies capture surface was regenerated using a 12-see injection of 20 mM H₃PO₄. The association rate (ka) and dissociation rate (kd) were determined by fitting the real-time binding sensorgrams to a 1:1 binding model with mass transport limitation using Scrubber 2.0c software. The dissociation equilibrium constant (KD) and dissociative half-life (t %) were calculated from the kinetic rate constants as: […]

[2] = molecular target: T2, REGN2054 (mf TFRC ecto-mmh): monomeric monkey (cyno) Tfrc ectodomain (C89-F760) with C-terminal … (monkey (cyno, Macaca fascicularis), UniProt H9EXL1 89-760); experiment: SPR Biacore, IgG captured by anti-hFc, 25 C
T2 construct: range 89-760; also called mfTFR-mmh; mfTfR-mmh
T2 sequence (chain, as listed by the source): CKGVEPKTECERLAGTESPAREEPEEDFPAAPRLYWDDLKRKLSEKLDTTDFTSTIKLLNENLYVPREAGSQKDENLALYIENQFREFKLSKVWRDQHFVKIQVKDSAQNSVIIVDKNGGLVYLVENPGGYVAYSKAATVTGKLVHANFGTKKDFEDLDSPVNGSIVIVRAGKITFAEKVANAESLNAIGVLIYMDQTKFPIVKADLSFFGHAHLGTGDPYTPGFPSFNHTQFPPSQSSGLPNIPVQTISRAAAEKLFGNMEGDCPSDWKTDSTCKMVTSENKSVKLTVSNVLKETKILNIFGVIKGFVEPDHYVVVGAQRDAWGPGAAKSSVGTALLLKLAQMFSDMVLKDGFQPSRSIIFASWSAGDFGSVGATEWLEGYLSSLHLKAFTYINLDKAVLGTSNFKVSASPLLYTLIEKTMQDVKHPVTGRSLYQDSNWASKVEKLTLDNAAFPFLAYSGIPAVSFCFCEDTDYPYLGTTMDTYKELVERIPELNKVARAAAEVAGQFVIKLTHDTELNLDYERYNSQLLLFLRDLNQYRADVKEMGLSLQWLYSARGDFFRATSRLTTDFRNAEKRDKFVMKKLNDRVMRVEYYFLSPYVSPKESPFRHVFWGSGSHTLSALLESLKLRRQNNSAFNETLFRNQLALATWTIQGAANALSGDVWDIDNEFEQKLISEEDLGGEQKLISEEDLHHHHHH
Description: as §1, §2

B1: 12850B anti-hTfR monoclonal antibody (bivalent IgG1) (antibody, V domains shown)
VH: QVQLVQSGAEVKKPGSSVKVSCKASGGTFNTYAITWVRQAPGQGLEWMGGIIPISGIAEYAQKFQGRVTITTDDSSTTAYMELNSLRSEDTAVYYCASWNYALYYFYGMDVWGRGTTVTVSS
VL: not shown
notes: hIgG1/kappa; also called H1H12850B; REGN17516
t1/2 [1]: 657 min | t1/2 [2]: 7.3 min

B2: 12839B anti-hTfR monoclonal antibody (bivalent IgG1) (antibody, V domains shown)
VH: QVQLVESGGGVVQPGRSLRLSCAASGFPFSNYVMYWVRQAPGKGLEWVALIFFDGKKNYHADSVKGRFTITRDNSKNMLYLQMNSLRPEDAAVYYCAKIHCPNGVCYKGYYGMDVWGQGTTVTVSS
VL: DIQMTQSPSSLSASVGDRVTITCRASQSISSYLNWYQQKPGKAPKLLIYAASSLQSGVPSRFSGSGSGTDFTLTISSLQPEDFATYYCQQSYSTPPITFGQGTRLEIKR
notes: hIgG1/kappa; also called H1H12839B; REGN17510
t1/2 [1]: 217 min

B3: 12841B anti-hTfR monoclonal antibody (bivalent IgG1) (antibody, V domains shown)
VH: EVQLVESGGGLVQPGGSLRLSCAASGFTFSNYWMNWVRQAPGKGLEWVANIKEDGGKKLYVDSVKGRFTISRDNAKNSLFLQMNSLRAEDTAVYYCAREDTTLVVDYYYYGMDVWGQGTTVTVSS
VL: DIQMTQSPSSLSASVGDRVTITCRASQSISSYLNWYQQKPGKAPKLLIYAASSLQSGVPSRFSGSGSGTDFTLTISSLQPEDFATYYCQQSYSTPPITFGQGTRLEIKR
notes: hIgG1/kappa; also called H1H12841B; REGN17511
t1/2 [1]: 99.8 min

B4: 12833B anti-hTfR monoclonal antibody (bivalent IgG1) (antibody, V domains shown)
VH: QVQLVESGGGVVQPGRSLRLSCAASGFTFSSFGMHWVRQAPGKGLEWVIFISYDGSDKYYADSVKGRFAISRDSSKNTLYLQMNSLRAEDTAVYYCAKENGILTDSYGMDVWGQGTTVTVSS
VL: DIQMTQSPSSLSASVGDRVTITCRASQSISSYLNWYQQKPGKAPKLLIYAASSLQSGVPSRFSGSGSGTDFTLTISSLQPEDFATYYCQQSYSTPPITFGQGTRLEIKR
notes: hIgG1/kappa
t1/2 [1]: 45.9 min | t1/2 [2]: 23.8 min

B5: 12798B anti-hTfR monoclonal antibody (bivalent IgG1) (antibody, V domains shown)
VH: EVQLVESGGDLVQPGRSLRLSCAASGFTFDDYAMHWVRQAPGKGLEWVSGISWNSATRVYADSVKGRFTISRDNAKNFLYLQMNSLRSEDTALYHCAKDMDISLGYYGLDVWGQGTTVTVSS
VL: not shown
notes: hIgG1/kappa; also called H1H12798B; REGN17507
t1/2 [1]: 183 min | t1/2 [2]: 9 min

B7: 12795B anti-hTfR monoclonal antibody (bivalent IgG1) (antibody, V domains shown)
VH: EVQLVESGGGLVQPGGSLRLSCATSGFTFTSYDMKWVRQAPGLGLEWVSAISGSGGNTYYADSVKGRFTISRDNSRNTLYLQMNSLRAEDTAVYYCTRSHDFGAFDYFDYWGQGTLVTVSS
VL: DIQMTQSPSSLSASVGDRVTITCRASQGIRDHFGWYQQKPGKAPKRLIYAASSLHSGVPSRFSGSGSGTEFTLTISSLQPEDFATYYCLQYDTYPLTFGGGTKVEIKR
notes: hIgG1/kappa
t1/2 [1]: > 1160 min | t1/2 [2]: 162 min

B8: 12801B anti-hTfR monoclonal antibody (bivalent IgG1) (antibody, V domains shown)
VH: EVQLLESGGALVQPGGSLRLSCAASGFTFTSYAMHWVRQAPGKGLEWVSSIRGSGGGTYSADSVKGRFTISRDNSRDTLYLQMNSVRAEDTAVYYCARSHDYGAFDFFDYWGQGTLVTVSS
VL: B7 VL with D31T, H32D, F33L, H55Q, Q79R, Y86F, D92N, T93S
notes: hIgG1/kappa
t1/2 [1]: 276 min | t1/2 [2]: 17.7 min

B9: 12845B anti-hTfR monoclonal antibody (bivalent IgG1) (antibody, V domains shown)
VH: EVQLVESGGGLVQPGGSLRLSCAASGFTVSNYEMNWVRQAPGKGLEWVSYISSSTSNIYYADSVKGRFTISRDNAENSLYLQMNSLRVEDTAVYYCVRDGIVVVPVGRGYYYYGLDVWGQGTTVTVSS
VL: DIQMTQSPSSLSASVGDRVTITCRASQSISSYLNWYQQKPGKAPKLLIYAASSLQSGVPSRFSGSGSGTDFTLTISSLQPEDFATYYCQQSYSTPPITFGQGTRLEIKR
notes: hIgG1/kappa; also called H1H12845B; REGN17513
t1/2 [1]: 57.9 min

B10: 69307 anti-hTfR monoclonal antibody (bivalent IgG1) (antibody, V domains shown)
VH: EVQLVESGGGLVQPGGSLRLSCTASGFTFSNYWMTWVRQAPGKGLEWVANIKEDGSEKEYVDSVKGRFTISRDNAKNSLYLQMNSLRGEDTAVYYCARDGEQLVDYYYYYVMDVWGQGTTVTVSS
VL: DIQMTQSPSSVSASVGDRVTITCRASQGISSWLAWYQQKPGKAPKLLIYAASSLQSGVPSRFSGSGSGTDFTLTISSLQPEDFATYYCQKADSLPYAFGQGTKLEIKR
notes: hIgG1/kappa
t1/2 [1]: 271 min

B11: 12812B anti-hTfR monoclonal antibody (bivalent IgG1) (antibody, V domains shown)
VH: QVQLVQSGAEVKKPGSSVRVSCKASRGTFSSYAISWVRQAPGQGLEWMGGIIPIFGTANYAQKFLARVTITADESTSTAYMELSSLRSEDTAVYYCAREKGWNYFDYWGQGTLVTVSS
VL: B10 VL with S9P, K90Q, D92N, L94F, Y96R, A97T, L104V
notes: hIgG1/kappa; also called H1H12812B; REGN17708
t1/2 [1]: 8.8 min

B15: 12816B anti-hTfR monoclonal antibody (bivalent IgG1) (antibody, V domains shown)
VH: QVQLVESGGGLVKPGGSLRLSCAASGFTFSDYYMNWIRQAPGKGLEWVSYISSSGTTIYYADSVKGRFTISRDNAKKSLYLEMNSLRAEDTAVYYCAREGYGNDYYYYGIDVWGQGTTVTVSS
VL: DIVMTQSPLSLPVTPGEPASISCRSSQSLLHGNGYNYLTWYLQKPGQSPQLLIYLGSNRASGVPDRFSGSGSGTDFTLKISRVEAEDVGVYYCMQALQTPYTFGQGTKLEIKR
notes: hIgG1/kappa
t1/2 [1]: 34.3 min | t1/2 [2]: 23.8 min

B16: 69261 anti-hTfR monoclonal antibody (bivalent IgG1) (antibody, V domains shown)
VH: B15 VH with D31V, T56S, K77N, E82Q, A97G, G102S, N103G, D104T, Y106S, I110M
VL: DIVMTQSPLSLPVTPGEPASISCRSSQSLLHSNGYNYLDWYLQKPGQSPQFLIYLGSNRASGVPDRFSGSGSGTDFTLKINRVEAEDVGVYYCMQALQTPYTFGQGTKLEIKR
notes: hIgG1/kappa
t1/2 [1]: 143 min | t1/2 [2]: 28.7 min

B17: 12834B anti-hTfR monoclonal antibody (bivalent IgG1) (antibody, V domains shown)
VH: QVQLVQSGAEVKKPGASVKVSCKASGYTFTSYGISWVRQAPGQGLEWMGWISVYHGNTNYAQKFQGRVTMTTDTSTSTAYMELRSLRSDDTAVYYCAREGYYDFWSGYYPFDYWGQGTLVTVSS
VL: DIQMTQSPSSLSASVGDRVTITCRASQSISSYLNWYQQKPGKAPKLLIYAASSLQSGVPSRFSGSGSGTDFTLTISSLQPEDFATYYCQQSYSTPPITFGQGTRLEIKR
notes: hIgG1/kappa
t1/2 [1]: 2.6 min

B18: 31863B anti-hTfR monoclonal antibody (bivalent IgG1) (antibody, V domains shown)
VH: EVQLVESGGGLVQPGGSLRLSCAASGFTFNSYAMTWVRQAPGKGLEWVSFIGGSTGNTYYAGSVKGRFTISSDNSKKTLYLQMNSLRAEDTAVYYCAKGGAARRMEYFQHWGQGTLVTVSS
VL: DIQMTQSPSSLSASIGDRVTITCRASQGISNYLAWYQQKPGKVPKLLIYAASTLQSGVPSRFSGSGSGTDFTLTISSLQPEDVATYYCQNHNSVPLTFGGGTKVEIKR
notes: hIgG1/kappa
t1/2 [1]: > 1160 min | t1/2 [2]: 3.9 min

B19: 31874B anti-hTfR monoclonal antibody (bivalent IgG1) (antibody, V domains shown)
VH: EVQLVESGGGLVQPGGSLRLSCAASGFAFSSYAMTWVRQAPGKGLEWVSVISGTGGSTYYADSVKGRFTISRDNSKNTLYLQMNSLRAEDTAVYYCAKGGAARRMEYFQYWGQGTLVTVSS
VL: B18 VL with I15V, K45N, N90K, H91Y, V94A
notes: hIgG1/kappa; also called H1H31874B; REGN17517
t1/2 [1]: 100 min | t1/2 [2]: 1.2 min

B22: 12799B anti-hTfR monoclonal antibody (bivalent IgG1) (antibody, V domains shown)
VH: QITLKESGPTLVKPTQTLTLTCTFSGFSLSTSGVGVVWIRQPPGKALEWLALIYWNDHKRYSPSLGSRLTITKDTSKNQVVLTMTNMDPVDTATYYCAHYSGSYSYYYYGLDVWGQGTTVTVSS
VL: DIQMTQSPSSVSASVGDRVTITCRASQGIASWLAWYQQKPGKAPELLIYAASSLQGGVPSRFSGSGSGTDFTLTISSLQPEDFAIYYCQQANYFPWTFGQGTKVEIKR
notes: hIgG1/kappa; also called H1H12799B; REGN17508
t1/2 [1]: 174 min | t1/2 [2]: 71.2 min

The remaining lines, values ahead:

t1/2 [1]: 67.2 min | t1/2 [2]: 25.1 min
B6: 69348 anti-hTfR monoclonal antibody (bivalent IgG1) (antibody, V domains shown)
VH: QVQLVESGGGVVQPGRSLRLSCAASGFTFTTYGMHWVRQAPGKGLEWVAVIWYDGSNKYYGDSVKGRFTISRDNSKNTLYLQMNSLRVDDTAVYYCTRTHGYTRSSDGFDYWGQGTLVTVSS
VL: B7 VL with G28S, D31N, H32V, F33L, Y36F, K45Q, H55Q, Y91H, D92N, T93F
notes: hIgG1/kappa

t1/2 [1]: 62.2 min
B12: 69329 anti-hTfR monoclonal antibody (bivalent IgG1) (antibody, V domains shown)
VH: B10 VH with T23A, E59D
VL: B10 VL with D92N, L94F, A97T
notes: hIgG1/kappa

t1/2 [1]: 64.1 min | t1/2 [2]: 1.1 min
B13: 69323 anti-hTfR monoclonal antibody (bivalent IgG1) (antibody, V domains shown)
VH: EVQLVESGGGLVQPGRSLRLSCAASGFTFDDYAMHWVRQAPGKGLEWVSGISWNSGYIGYADSVKGRFTISRDNAENSLHLQMNSLRAEDTALYYCARGGSTLVRGVKGGYYGMDVWGQGTTVTVSS
VL: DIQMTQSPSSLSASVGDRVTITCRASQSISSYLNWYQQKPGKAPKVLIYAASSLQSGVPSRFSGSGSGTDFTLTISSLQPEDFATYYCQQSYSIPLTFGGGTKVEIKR
notes: hIgG1/kappa

t1/2 [1]: 185 min | t1/2 [2]: 16 min
B14: 69340 anti-hTfR monoclonal antibody (bivalent IgG1) (antibody, V domains shown)
VH: EVQLVESGGGLVQPGRSLRLSCAASGFTFDDKAMHWVRQVPGKGLEWISGISWNSGTIGYADSVKGRFIISRDNAKNSLYLQMNSLRAEDTALYYCAKDGDTSGWYWYGLDVWGQGTTVTVSS
VL: EIVLTQSPATLSLSPGERATLSCRASQSVSSYLAWYQQKPGQAPRLLIHDVSNRATGIPARFSGSGSGTDFTLTISSLEPEDFVVYYCQQRSDWPITFGQGTRLEIKR
notes: hIgG1/kappa

t1/2 [1]: 2.5 min | t1/2 [2]: 1.2 min
B20: 69331 anti-hTfR monoclonal antibody (bivalent IgG1) (antibody, V domains shown)
VH: QVQLVESGGGVVQPGRSLRLSCIASGFTFSVYGIHWVRQAPGKGLEWMAVISHDGNIKHYADSVKGRFTISRDNSKNTLYLQINSLRTEDTAVYYCAKDTWNSLDTFDIWGQGTMVTVSS
VL: B18 VL with M4L, I15V, R24W, N31S, V43A, D70E, V83F, N90Q, H91L, V94Y
notes: hIgG1/kappa

t1/2 [1]: 10 min | t1/2 [2]: 3.1 min
B21: 69263 anti-hTfR monoclonal antibody (bivalent IgG1) (antibody, V domains shown)
VH: EVQLVESGGGLVQPGRSLRLSCAVSGFTFDDYAMHWVRQAPGKGLEWVSGISWNSGTRGYADSVKGRFTISRDNAKNSLYLQMNSLRGEDTALYYCVKDITISPNYYGMDVWGQGTTVTVSS
VL: B18 VL with I15V, G28D, N31H, L33S, V43L, K45N, T72S, I75T, N90K, H91Y
notes: hIgG1/kappa

t1/2 [1]: 45.1 min
B23: 69326 anti-hTfR monoclonal antibody (bivalent IgG1) (antibody, V domains shown)
VH: EVQLVESGGGLVQPGGSLRLSCAVSGFIFSSYEMNWVRQAPGKGLEWVSYISSSGSTIFYADSVKGRFTISRDNAKNSLYLQMNSLRAEDTAVYYCVSGVVLFDVWGQGTMVTVSS
VL: EIVMTQSPATLSVSPGERATLSCRASQSVSSNFAWYQQKPGQAPRLLIYSASSRATGIPVRFSGSGSGTEFTLTISSLQSEDFAVYYCQQYNIWPRTFGQGTKVEIKR
notes: hIgG1/kappa
